Results taken from the supplement of paper PMC10724198.
± gives the standard deviation of the averaged measurements.

system: Saccharomyces cerevisiae; assay: protein stability index of tFT-peptide fusion (C-terminal peptide) (PSI (0-1 scale)); higher = more stable (slower turnover); conditions: genetic background: wild type; temperature: 30 C
Protocol: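 Multiplexed protein stability (MPS) profiling in S. cerevisiae. Random 12-aa peptides (tFT-X12 library) are fused to the C-terminus of a sfGFP-mCherry tandem fluorescent timer, after mCherry and a GGGS linker. Cells are FACS-sorted into 8 mCherry/sfGFP bins and deep-sequenced. The protein stability index (PSI) is the read-weighted bin average, scaled from 0 (unstable) to 1 (stable). Only peptides with >10 reads are reported; cells were grown at 30 °C in SC-His with glucose.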
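Further: PSI is a weighted mean of sequencing reads over stability bins, variants kept only with over 10 reads, mCherry proximal and sfGFP distal, peptide attached via GGGS linker.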

Sequence	protein stability index
RLLVSDSLLLGC	0.684 ± 0.014
IKSDCKDRRKRR	0.7233 ± 0.0072
GSLSIVVCSFEF	0.542 ± 0.044
PRAPQNEHQTKG	0.667 ± 0.059
KFNFVRMSSLRL	0.692 ± 0.16
LAGGRCGCGTHD	0.684 ± 0.042
HHAHRLPTLATS	0.693 ± 0.074
RRMVRLDACASV	0.659 ± 0.041
CDVLNQTRKRHK	0.7028 ± 0.0019
SPPSPFAFPLPP	0.67473 ± 0.00064
YCGGRCGGWEIG	0.698 ± 0.012
TGSLLWGCFALL	0.623 ± 0.054
LLWCPLRSIGLS	0.696 ± 0.044
RCTRAAGLAAPA	0.691 ± 0.0088
LSRLLVYSRGIV	0.629 ± 0.093
RRWGLIGVMSYL	0.732 ± 0.089
GATGGACGVWAG	0.668 ± 0.048
AGGDDGAPGTQS	0.644 ± 0.015
SYRPPYTQPTDL	0.658 ± 0.064
KTHKKKKKNKNF	0.525 ± 0.012
LSSPPAPPPPPR	0.677 ± 0.13
FAQRRGPAALNI	0.70492 ± 0.00052
LRIILPPLAQPE	0.639 ± 0.019
TPRYVGLIKINK	0.676 ± 0.03
RGRLRFGNTTGI	0.691 ± 0.035

Sequence	protein stability index
APPPPPDHPFPP	0.691 ± 0.08
YVGGGAGVLLVL	0.623 ± 0.014
SAGVIVPGRAGR	0.761 ± 0.082
PPMSYYLFPCSR	0.699 ± 0.061
EWGRSGVRCRLG	0.571 ± 0.052
SPSSPPPSPPPA	0.727 ± 0.016
RFGGGAVWGLGG	0.666 ± 0.02
PPLVPPPLRASP	0.684 ± 0.037
FFVRGCLCLSDR	0.693 ± 0.024
LFIGFFGIECFI	0.5798 ± 0.0037
KKKKQKKRETTK	0.636 ± 0.012
SPATDRTSLFES	0.729 ± 0.022
TPSPLAILSSTC	0.6888 ± 0.0047
LLEGSFFCGNSS	0.726 ± 0.037
RPWAKGTGGRCY	0.723 ± 0.21
WDEDGIFDAGGA	0.6 ± 0.041
FLPRRLCVRWRG	0.684 ± 0.065
VCKGGRIEYGLQ	0.666 ± 0.037
SLALSPQFLSFP	0.749 ± 0.081
PFSIPPPPPRYP	0.766 ± 0.0092
RLPPLLVPFPSS	0.694 ± 0.015
SKGSVFGNMGYR	0.6741 ± 0.0063
PTTTPPPTPITG	0.76 ± 0.065
SLPWVLLPTGPY	0.751 ± 0.075
QTVFRQRLKEPF	0.644 ± 0.038

Sequence	protein stability index
CPAPCPPLPPHV	0.71997 ± 0.00064
SGSITAGLVRNV	0.6152 ± 0.0051
VTPPGFTYVLEV	0.619 ± 0.058
RYPPVQPRRAQR	0.593 ± 0.031
GWLGPGCVGRMQ	0.733 ± 0.068
FLGLSYYRLPVG	0.606 ± 0.046
GPIGVMLCNHHS	0.674 ± 0.015
LRARMACPLIIS	0.663 ± 0.025
GLVGLSLSSCGR	0.653 ± 0.088
WKKDTKTKKKKN	0.695 ± 0.034
PLPPCPPTPCPS	0.648 ± 0.013
TTGGRGARVGGR	0.755 ± 0.08
LPRSSGSTTPYP	0.688 ± 0.025
SLWGFWRVVGRR	0.594 ± 0.052
RVWAGGGGGDGC	0.691 ± 0.021
LLGRIASCKIWL	0.657 ± 0.019
RGRGRVFVFGNW	0.726 ± 0.033
SVPPPPLARALL	0.759 ± 0.057
ATRLFSSNLFLR	0.576 ± 0.051
CGGGGASGAIAR	0.668 ± 0.013
PFTSPAGSFPPP	0.762 ± 0.068
VGWQGRWWLWGG	0.568 ± 0.03
CALCRLGVAWVS	0.596 ± 0.021
LFPSPFVASFPP	0.765 ± 0.055
PPGPRPTPPPPI	0.641 ± 0.045

Sequence	protein stability index
PTPSLPCPDHPL	0.693 ± 0.0098
PSKLNLSRKPEC	0.677 ± 0.018
VEWCARGRVRRA	0.757 ± 0.045
LYSNVLAAVMTG	0.623 ± 0.043
SARRFPPPPSSS	0.702 ± 0.046
SPRLLPSPTRVA	0.643 ± 0.059
REGGVLGVVKWS	0.668 ± 0.02
LLSPPPTPFPLP	0.666 ± 0.061
LVRGKGGRGIEG	0.698 ± 0.074
GVGLSGVGGLGR	0.6439 ± 0.004
APFSALFPANSV	0.719 ± 0.15
GGWEGLRGLGVG	0.634 ± 0.031
LVVSPPPLPFPS	0.689 ± 0.013
ILQWEESRKGGI	0.715 ± 0.054
FVLPLAPAGIAS	0.5817 ± 0.0038
WSESVKEASFTS	0.756 ± 0.028
PGCSCPSTRRTT	0.655 ± 0.077
CYPPTRYILGYF	0.72 ± 0.06
TASPAHTPTKTR	0.608 ± 0.051
PHLESVRYGLFS	0.709 ± 0.02
RGLGGGAECGRW	0.785 ± 0.12
SYPSGFPSPSHP	0.834 ± 0.062
PHLFDPLVPASF	0.682 ± 0.048
